Data: patent publication US20250197490A1, “ANTI-CORTICOTROPIN-RELEASING HORMONE ANTIBODIES AND USE IN CONGENITAL ADRENAL HYPERPLASIA” (HBM ALPHA THERAPEUTICS, INC., priority 2021, published 2025)
Changes are numbered by the printed parent chain. Entries after “also recorded” stand apart in the source; their conditions may differ.

T1: human UCN1 (Homo sapiens, UniProt P55089)
T1 sequence (P55089 83-122 limits assumed): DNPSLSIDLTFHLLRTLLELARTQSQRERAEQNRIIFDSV

B1: PR302334-26: Series 9 humanized variant of PR302334; VH SEQ ID NO: 277, VL SEQ ID NO: 328 (antibody, V domains shown)
VH: EVQLVESGGGLVQPGGSLRLSCAASGFTFSTYAMSWVRQAPGKGLEWVASIRSGGTTYYPDSVKGRFTISRDNSKNSLYLQMNSLRAEDTAVYYCTRGIDWGQGTTVTVSS
VL: DIVMTQSPDSLAVSLGERATINCKASQSVNNDVAWYQQKPGQPPRLLIYYASNRYTGVPDRFSGSGSGTDFTLTISSLQAEDLAVYFCQQDYSSWTFGGGTKVEIK
modifications: PR302334-18 VH, PR302334-26 VH, PR302334-27 VH; PR302334-10 VL, PR302334-24 VL, PR302334-26 VL, PR302334-4 VL
B2: PR302334-24: humanized variant of PR302334; VH SEQ ID NO: 275, VL SEQ ID NO: 328 (antibody, V domains shown)
VH: B1 VH with Q13K, S74A
VL: B1 VL
modifications: PR302334-16 VH, PR302334-24 VH, PR302334-25 VH; PR302334-10 VL, PR302334-24 VL, PR302334-26 VL, PR302334-4 VL
B3: PR302038: humanized variant of PR301777; VH SEQ ID NO: 256, VL SEQ ID NO: 311 (antibody, V domains shown)
VH: EMQLVESGGGLVQPGGSLRLSCAASGFTFSNYWMNWVRQAPGKGLEWVAEIRLKSNNYATHYAESVKGRFTISRDDSKSSVYLQMNSLKTEDTAVYYCTVGTLVYWGQGTLVTVSS
VL: EIVLTQSPATLSLSPGERATLSCRASQSVSTSTYNYMHWFQQKPGQAPRLLIKFASNLESGIPARFSGSGSGTDFTLTISSLEPEDTAVYYCQHSWEIPYTFGQGTKLEIK
modifications: PR302036 VH, PR302038 VH, PR302041 VH; PR302031 VL, PR302038 VL, PR302045 VL, PR302052 VL, PR302066 VL

How the values were obtained:
[1] = target: T1, human UCN1; test: Human UCN1 ELISA binding; details: in words
Protocol: Streptavidin (Thermo, Cat: 21125) was diluted in PBS to a concentration of 2 μg/ml. 100 μl of diluted streptavidin was added per well to ELISA microplates, and the plates were incubated overnight at 4° C. Plates were blocked with ELISA blocking solution (containing 2% w/v BSA, 0.05% (v/v) Tween-20, pH 7.4 PBS buffer) at 37° C. for 1 hour, and then incubated with 0.5 μg/mL CRH (NT biotin), 0.5 μg/mL CRH (CT biotin), 1 μg/mL human UCN1 (NT biotin), or 1 μg/mL human UCN1 (CT biotin) for 1 hour at 37° C. Plates were then washed and incubated with diluted anti-CRH antibody (Ab) at 15 μg/ml (100 nM, 10 diluted, 8 points) for 1 hour at 37° C. Subsequently, plates were washed and incubated with HRP-conjugated goat anti-human IgG (H+L) antibody (Jackson, Cat: 109-035-088) at 37° C. for 1 hour. […] 100 μL of ELISA stopping solution (Solarbio, Cat #: C1058) was added to terminate the reaction, and the optical density at 450 nm (OD450 nm) was determined by an ELISA plate reader (Molecular Devices, Spectra max 384 plus).
Streptavidin (Thermo, Cat: 21125) was diluted in PBS with a concentration of 2 μg/mL. […] 100 μL of ELISA stopping solution (Solarbio, Cat #: C1058) was then added to terminate the reaction, and the OD450 nm was determined by an ELISA plate reader (Molecular Devices, Spectra max 384 plus).

[2] = system: Mrap1 KO mice; test: Mrap1 KO mice constitutively high ACTH model; format: in vivo, mouse; details: for plasma ACTH concentration in Mrap1 KO mice: single dose of mAb 20 mg/kg
[3] = system: wildtype female C57BL/6 mice; test: Wildtype mice restraint-stress model (ACTH and corticosterone); format: in vivo, mouse
Protocol: 8-10 week old wildtype female C57BL/6 mice were obtained from Charles River Laboratories. Mrap1 KO mice were obtained from Queen Mary University of London, UK. SSR125543A, a small molecule CRHR1 antagonist, was obtained from Axon Medchem (Cat #Axon 1799). Mouse Corticosterone (55-Corms-E01) and adrenocorticotropic hormone (ACTH) ELISA kits (21-ACTHU-E01) were obtained from ALPCO, USA. All procedures were carried out in accordance with the Guide for the Care and Use of Laboratory Animals of the National Institutes of Health. Protocols were approved by Charles River Laboratories Institutional Animal Care and Use Committee (IACUC).
To determine the effect of nonpainful physical restraint upon stress responses, mice were restrained in 50 ml polypropylene ventilated tubes in which the tip was cut off with a razor blade to allow the mouse to breathe easily for 15-20 minutes. A mouse was directed to the open tube and crawled in. A piece of paper towel was put behind the mouse so that it could not back out, and the cap was screwed on. The mouse was placed back in its cage, ventral size down on the bedding. This stressor is not considered painful, as mice are confined to a limited space (in a ventilated restraint tube) but not in an unnatural physical position. The investigator was present in the room during the entire procedure. At the end of the procedure, the mouse was removed by the tail.
On day 1, each mouse was injected intraperitoneally with 20 mg/kg of anti-CRH mAbs, hIgG1 or PBS (5 mice per group). On day 2 or 3, and 14 each mouse was subjected to physical restraint-stress described above for 15 or 20 min. Immediately after restraint-stress, 200 μl of blood was collected in EDTA tubes from the submandibular vein of each mouse. Plasma was separated using a refrigerated centrifuge (4° C. at 500×g for 10 min) and snap-frozen in dry ice for subsequent ACTH and corticosterone ELISA measurement.
On day 1, one half of mice were injected IP with 20 mg/kg of anti-CRH Ab or hIgG1 (5 mice per group). […]

Molecule | binding to human UCN1 peptides in ELISA [1] | plasma ACTH concentration in Mrap1 KO mice [2] | duration of the effects of the mAb ([3]; wildtype mice restraint model) | extent of inhibition of ACTH and corticosterone versus SSR125543A ([3]; wildtype mice restraint model, SSR125543A 30 mg/kg) | efficacy versus SSR125543A in reducing plasma ACTH and corticosterone levels ([3]; wildtype mice restraint stress, mAb 20 mg/kg and 5 mg/kg, SSR125543A 30 mg/kg) | efficacy versus SSR125543A in reducing plasma ACTH levels ([2]; Mrap1 KO mice, PR302064 20 mg/kg, PR302334-24 20, 10 and 5 mg/kg, SSR125543A 30 mg/kg) | extent of inhibition of ACTH versus SSR125543A ([2]; Mrap1 KO mice, SSR125543A 30 mg/kg) | plasma ACTH concentrations in Mrap1 KO mice, dose dependent ([2]; 20 mg/kg and 5 mg/kg, day 2 and day 16)
B1 | except for PR302334-26, bound to human UCN1 peptides | markedly reduced |  |  |  |  |  | 
B2 |  | significantly reduced | at least 17 days | more complete inhibition | more efficacious; also recorded: superior efficacy | more efficacious; also recorded: superior efficacy | more complete inhibition | 
B3 |  |  |  |  |  |  |  | reduced
